# The supplement of paper PMC9112550, “Optimization of the antimicrobial peptide Bac7 by deep mutational scanning” (BMC Biology, 2022)
# Tested on: Escherichia coli TOP10
# Test: shrunken log2 fold change of peptide-encoding DNA abundance (4.5 h post-induction vs induction); higher = less antimicrobial activity (less host growth inhibition)
# Conditions: time post-induction: 4.5 h; library: site-saturation at positions 5, 18, 19, 20
# 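Further: peptides expressed intracellularly from a pBAD plasmid library in pooled LB shake-flask culture, induced with 0.3% L-arabinose, DNA abundance read by NGS, three biological replicates, DESeq2 with apeglm shrinkage.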
row,Sequence,shrunken log2 fold change
1,RRIRDRPPRLPRPRPRPLFHPRP,-0.152
2,RRIRDRPPRLPRPRPRPLGAPRP,0.751
3,RRIRDRPPRLPRPRPRPLGNPRP,-0.0332
4,RRIRDRPPRLPRPRPRPLHGPRP,0.01
5,RRIRDRPPRLPRPRPRPLHHPRP,-0.314
6,RRIRDRPPRLPRPRPRPLHIPRP,-0.0915
7,RRIRDRPPRLPRPRPRPLHLPRP,-0.0348
8,RRIRDRPPRLPRPRPRPLIKPRP,0.153
9,RRIRDRPPRLPRPRPRPLIRPRP,-0.0502
10,RRIRDRPPRLPRPRPRPLLDPRP,0.17
11,RRIRDRPPRLPRPRPRPLLQPRP,0.287
12,RRIRDRPPRLPRPRPRPLLSPRP,0.447
13,RRIRDRPPRLPRPRPRPLMQPRP,0.823
14,RRIRDRPPRLPRPRPRPLMRPRP,0.665
15,RRIRDRPPRLPRPRPRPLMYPRP,-0.00328
16,RRIRDRPPRLPRPRPRPLNEPRP,-0.188
17,RRIRDRPPRLPRPRPRPLNIPRP,-0.161
18,RRIRDRPPRLPRPRPRPLNRPRP,-0.0679
19,RRIRDRPPRLPRPRPRPLQSPRP,-0.015
20,RRIRDRPPRLPRPRPRPLRDPRP,0.537
21,RRIRDRPPRLPRPRPRPLSWPRP,0.488
22,RRIRDRPPRLPRPRPRPLTSPRP,0.109
23,RRIRDRPPRLPRPRPRPLWWPRP,0.721
24,RRIRDRPPRLPRPRPRPLYSPRP,-0.411
25,RRIRDRPPRLPRPRPRPMANPRP,-0.0338

row,Sequence,shrunken log2 fold change
1,RRIRDRPPRLPRPRPRPMCLPRP,0.131
2,RRIRDRPPRLPRPRPRPMCSPRP,0.261
3,RRIRDRPPRLPRPRPRPMFEPRP,0.0172
4,RRIRDRPPRLPRPRPRPMFKPRP,-0.767
5,RRIRDRPPRLPRPRPRPMFTPRP,-0.174
6,RRIRDRPPRLPRPRPRPMGCPRP,-0.000921
7,RRIRDRPPRLPRPRPRPMHEPRP,0.0698
8,RRIRDRPPRLPRPRPRPMHTPRP,0.0757
9,RRIRDRPPRLPRPRPRPMHWPRP,0.591
10,RRIRDRPPRLPRPRPRPMIEPRP,0.0558
11,RRIRDRPPRLPRPRPRPMKAPRP,0.0349
12,RRIRDRPPRLPRPRPRPMKGPRP,0.0395
13,RRIRDRPPRLPRPRPRPMKKPRP,0.0162
14,RRIRDRPPRLPRPRPRPMKSPRP,0.0815
15,RRIRDRPPRLPRPRPRPMMCPRP,-0.131
16,RRIRDRPPRLPRPRPRPMNCPRP,-0.00373
17,RRIRDRPPRLPRPRPRPMPWPRP,-0.0438
18,RRIRDRPPRLPRPRPRPMQPPRP,0.0977
19,RRIRDRPPRLPRPRPRPMRQPRP,0.0681
20,RRIRDRPPRLPRPRPRPMRSPRP,-0.00884
21,RRIRDRPPRLPRPRPRPMTFPRP,-0.0951
22,RRIRDRPPRLPRPRPRPMTLPRP,0.0841
23,RRIRDRPPRLPRPRPRPMVCPRP,0.141
24,RRIRDRPPRLPRPRPRPMWCPRP,0.00673
25,RRIRDRPPRLPRPRPRPMWIPRP,-0.306

row,Sequence,shrunken log2 fold change
1,RRIRDRPPRLPRPRPRPNAIPRP,0.13
2,RRIRDRPPRLPRPRPRPNCSPRP,0.271
3,RRIRDRPPRLPRPRPRPNDPPRP,-0.125
4,RRIRDRPPRLPRPRPRPNEMPRP,0.00902
5,RRIRDRPPRLPRPRPRPNGGPRP,-0.0647
6,RRIRDRPPRLPRPRPRPNGHPRP,-0.252
7,RRIRDRPPRLPRPRPRPNHEPRP,-0.0728
8,RRIRDRPPRLPRPRPRPNHSPRP,-0.33
9,RRIRDRPPRLPRPRPRPNIIPRP,-0.117
10,RRIRDRPPRLPRPRPRPNILPRP,-0.437
11,RRIRDRPPRLPRPRPRPNKSPRP,-0.534
12,RRIRDRPPRLPRPRPRPNLLPRP,-0.0507
13,RRIRDRPPRLPRPRPRPNMCPRP,-0.0431
14,RRIRDRPPRLPRPRPRPNMIPRP,-0.0358
15,RRIRDRPPRLPRPRPRPNMLPRP,0.0937
16,RRIRDRPPRLPRPRPRPNPEPRP,0.0935
17,RRIRDRPPRLPRPRPRPNPLPRP,1.05
18,RRIRDRPPRLPRPRPRPNQFPRP,-0.416
19,RRIRDRPPRLPRPRPRPNQQPRP,-0.12
20,RRIRDRPPRLPRPRPRPNQYPRP,-0.428
21,RRIRDRPPRLPRPRPRPNRPPRP,0.0951
22,RRIRDRPPRLPRPRPRPNTKPRP,-0.124
23,RRIRDRPPRLPRPRPRPNTNPRP,-0.448
24,RRIRDRPPRLPRPRPRPNTTPRP,-0.0542
25,RRIRDRPPRLPRPRPRPNTWPRP,0.23
